In paper PMC5095173, “Disulfide-activated protein kinase G Iα regulates cardiac diastolic relaxation and fine-tunes the Frank–Starling response” (Nature Communications, 2016):

B1: Polymerase I and transcript release factor: PKGIα substrate, phospho sites T304 (r27) and S302 (r28) (protein, UniProt P85125 1-392, looked up)
Caveolae-associated protein 1: MEDVTLHIVERPYSGYPDASSEGPEPTPGEARATEEPSGTGSDELIKSDQVNGVLVLSLLDKIIGAVDQIQLTQAQLEERQAEMEGAVQSIQGELSKLGKAHATTSNTVSKLLEKVRKVSVNVKTVRGSLERQAGQIKKLEVNEAELLRRRNFKVMIYQDEVKLPAKLSVSKSLKESEALPEKEGDELGEGERPEEDAAAIELSSDEAVEVEEVIEESRAERIKRSGLRRVDDFKKAFSKEKMEKTKVRTRENLEKTRLKTKENLEKTRHTLEKRMNKLGTRLVPVERREKLKTSRDKLRKSFTPDHVVYARSKTAVYKVPPFTFHVKKIREGEVEVLKATEMVEVGPDDDEVGAERGAETDLLRGSSPDVHTLLEITEESDAVLVDKSDSD
modifications: phosphorylated at T304/S302
B2: Myosin light chain kinase 3: PKGIα substrate, phospho site S155 (protein, UniProt E9PT87 1-786, looked up)
Myosin light chain kinase 3: MSGVSEEDPEGLGPQGLPALGGACLVTVDKKLNVLTEKVDRLLHFQEDVTEKLQCVCQGMDHLEQGLHRLEASQELGLAGPGSTSPAAAQAAWPEVLELVRAVRQEGAQHGARLEALFKMVVAVDRAITLVGSTIQNSKVDDFILQGTVPWRKGSLADGPEENKEQAEVAGVKPKHVLNTGSVQAATSRALWEESQKQDTPVGTVEGLPLIIDTSLKGADLTQAGASLRQGVEALDPGQEPPPTEAESRLPALASEDTGTTLELSVAIDRISEVLTSLRMSQSAGEGTSSSKPDCSEPGPQPLGPLTTDSDIHSDEGLPRISVRMREMTTPEELFETQGGSPIGSAEAPGPGTVLEDQIPKGARPFPPLPKRSCNNGGASAEEATGPGAEPIRGPSLVTRDWRDEPVGTTDLQQGRDPGAVSPEPGKDHAAQGPGRTEAGRRVSSAAEAAIVVLDDSAAPPAPFEHRVVSIKDTLISTSYTVSQHEVLGGGRFGQVHRCTERSTGLALAAKIIKVKNIKDREDVKNEINIMNQLSHVNLIQLYDAFESKNSFTLIMEYVDGGELFDRITDEKYHLTELDVVLFTRQICEGVHYLHQHYILHLDLKPENILCVSQTGHQIKIIDFGLARRYKPREKLKVNFGTPEFLAPEVVNYEFVSFPTDMWSVGVITYMLLSGLSPFLGETDAETMNFIVNCSWDFDADTFKGLSEEAKDFVSRLLVKEKSCRMSATQCLKHEWLNHLIAKASGSNVRLRSQLLLQKYMAQRKWKKHFHVVTAVNRLRKFPTCP
modifications: phosphorylated at S155
B3: Protein NDRG2: PKGIα substrate, phospho site S332 (protein, UniProt Q9QYG0 2-371, looked up)
Protein NDRG2: AELQEVQITEEKPLLPGQTPETAKEAELAARILLDQGQTHSVETPYGSVTFTVYGTPKPKRPAIFTYHDVGLNYKSCFQPLFRFGDMQEIIQNFVRVHVDAPGMEEGAPVFPLGYQYPSLDQLADMIPCILQYLNFSTIIGVGVGAGAYILSRYALNHPDTVEGLVLINIDPNAKGWMDWAAHKLTGLTSSIPDMILGHLFSQEELSGNSELIQKYRGIIQHAPNLENIELYWNSYNNRRDLNFERGGETTLKCPVMLVVGDQAPHEDAVVECNSKLDPTQTSFLKMADSGGQPQLTQPGKLTEAFKYFLQGMGYMASSCMTRLSRSRTASLTSAASIDGSRSRSRTLSQSSESGTLPSGPPGHTMEVSC
modifications: phosphorylated S332
B4: Trifunctional enzyme subunit beta, mitochondrial: PKGIα substrate, phospho site S198 (protein, UniProt Q60587 35-475, looked up)
Trifunctional enzyme subunit …: SAPAVQTKSKKTLAKPNLKNIVVVEGVRIPFLLSGTSYKDLMPHDLARAALSGLLYRTNIPKDVVDYIIFGTVIQEVKTSNVAREAALGAGFSDKTPAHTVTMACISSNQAMTTAVGLIASGQCDVVVAGGVELMSDVPIRHSRNMRKMMLDLNKAKTLAQRLSLLTKFRLNFLSPELPAVAEFSTNETMGHSADRLAAAFAVSRMEQDKYALRSHSLAKKAQDEGHLSDIVPFKVPGKDTVSKDNGIRPSSLEQMAKLKPAFIKPYGTVTAANSSFLTDGASAMLIMSEDRALAMGYKPKAYLRDFIYVSQDPKDQLLLGPTYATPKVLEKAGLTMNDIDAFEFHEAFSGQILANFKAMDSDWFAQNYMGRKTKVGAPPLEKFNIWGGSLSLGHPFGATGCRLVMAAANRLRKDGGQYALVAACAAGGQGHAMIVEAYPK
modifications: phosphorylated at S198
B5: 1-phosphatidylinositol 4,5-bisphosphate phosphodiesterase gamma-1: PKGIα substrate, phospho site S1233 (protein, UniProt P10686 2-1290, looked up)
1-phosphatidylinositol …: AGVGTPCANGCGPSAPSEAEVLHLCRSLEVGTVMTLFYSKKSQRPERKTFQVKLETRQITWSRGADKIEGSIDIREIKEIRPGKTSRDFDRYQEDPAFRPDQSHCFVILYGMEFRLKTLSLQATSEDEVNMWIKGLTWLMEDTLQAATPLQIERWLRKQFYSVDRNREDRISAKDLKNMLSQVNYRVPNMRFLRERLTDFEQRSGDITYGQFAQLYRSLMYSAQKTMDLPFLETNTLRTGERPELCQVSLSEFQQFLLEYQGELWAVDRLQVQEFMLSFLRDPLREIEEPYFFLDELVTFLFSKENSVWNSQLDAVCPETMNNPLSHYWISSSHNTYLTGDQFSSESSLEAYARCLRMGCRCIELDCWDGPDGMPVIYHGHTLTTKIKFSDVLHTIKEHAFVASEYPVILSIEDHCSIAQQRNMAQHFRKVLGDTLLTKPVDIAADGLPSPNQLKRKILIKHKKLAEGSAYEEVPTSVMYSENDISNSIKNGILYLEDPVNHEWYPHYFVLTSSKIYYSEETSSDQGNEDEEEPKEASGSTELHSSEKWFHGKLGAGRDGRHIAERLLTEYCIETGAPDGSFLVRESETFVGDYTLSFWRNGKVQHCRIHSRQDAGTPKFFLTDNLVFDSLYDLITHYQQVPLRCNEFEMRLSEPVPQTNAHESKEWYHASLTRAQAEHMLMRVPRDGAFLVRKRNEPNSYAISFRAEGKIKHCRVQQEGQTVMLGNSEFDSLVDLISYYEKHPLYRKMKLRYPINEEALEKIGTAEPDYGALYEGRNPGFYVEANPMPTFKCAVKALFDYKAQREDELTFTKSAIIQNVEKQDGGWWRGDYGGKKQLWFPSNYVEEMINPAILEPEREHLDENSPLGDLLRGVLDVPACQIAIRPEGKNNRLFVFSISMPSVAQWSLDVAADSQEELQDWVKKIREVAQTADARLTEGKMMERRKKIALELSELVVYCRPVPFDEEKIGTERACYRDMSSFPETKAEKYVNKAKGKKFLQYNRLQLSRIYPKGQRLDSSNYDPLPMWICGSQLVALNFQTPDKPMQMNQALFMAGGHCGYVLQPSTMRDEAFDPFDKSSLRGLEPCVICIEVLGARHLPKNGRGIVCPFVEIEVAGAEYDSTKQKTEFVVDNGLNPVWPAKPFHFQISNPEFAFLRFVVYEEDMFSDQNFLAQATFPVKGLKTGYRAVPLKNNYSEDLELASLLIKIDIFPAKENGDLSPFSGTSLRERASDASSQLFHVRAREGSFEARYQQPFEDFRISQEHLADHFDSRERRAPRRTRVNGDNRL
modifications: phosphorylated at S1233

Tested on: PKGIα (analogue-sensitive C42S/M438G), cGMP-activated
Assay: Chemical genetic phosphoproteomic screen, cGMP-activated PKGIα C42S/M438G versus unactivated control
Type: biochemical, human PKGIα; substrates in rat heart homogenate
Conditions: PKGIα C42S/M438G + 100 μM cGMP vs basal; 1 h, 30 °C, pH 7.5, rat heart homogenate; label-free LC–MS/MS; n=4; * P<0.05 Dunnett: all values except phospholamban S16
Description: (§1) We employed a chemical genetic method[18] to identify direct substrates of cGMP-activated PKGIα and disulfide bond-activated PKGIα in heart tissue. This method involves mutation of the ATP binding-site of the kinase of interest so that it can accept a ‘bulky' N6-alkylated ATP analogue for example, N6^−phenylethyl ATP. An oxygen atom on the γ phosphate is also replaced with a sulfur atom—giving an N6-alkylated ATPγS analogue—so that the mutant kinase catalyses the transfer of a thiophosphate group (–PO3S^3−) to its substrates instead of a phosphate. The thiophosphate group is nucleophilic, providing a basis for substrates of the analogue-sensitive kinase to be purified by a ‘covalent capture' protocol. LC–MS/MS allows identification of the substrate and localization of the phosphorylation site. Thiophosphorylated proteins can also be detected with a thiophosphate ester-specific antibody. Analogue-sensitive mutants of PKGIα and PKGIα C42S (which cannot form the activating intermolecular disulfide bond) were generated by mutating Met438 in the ATP-binding domain to Gly. This mutation was chosen based on a previous study where an analogue-sensitive mutant of the catalytic subunit of PKA—which shares sequence homology with PKGIα—was engineered. Detailed protocols are given below.
(§2) A pCDNA3 expression vector encoding human FLAG-tagged PKGIα (ref. [41]) underwent site-directed mutagenesis to generate constructs for untagged WT, C42S, M438G and C42S/M438G PKGIα. Mutations were introduced using the QuikChange II Site-Directed Mutagenesis Kit (Agilent) according to the manufacturer's instructions. Expression and purification of the PKGIα mutants was performed according to a published method[42] as follows: suspension FreeStyle 293-F cells (ThermoFisher Scientific) were transfected with the appropriate PKGIα construct using the stable cationic polymer polyethyleneimine (PEI) as a transfection reagent. After ∼72 h cells were harvested by centrifugation (400g; room temperature; 15 min), re-suspended in ice cold lysis buffer (25 mM sodium phosphate buffer pH 6.8; 10 mM ethylenediaminetetraacetic acid (EDTA); 100 mM NaCl; 10 mM benzamidine hydrochloride; and 10 mM dithiothreitol (DTT)) and frozen in liquid N2. Cells were lysed by three freeze (liquid N2)-thaw (37 °C) cycles and the lysate was clarified by centrifugation at 140,000g and 4 °C for 30 min. The soluble protein fraction was loaded onto a pre-equilibrated 8-(2-aminoethylamino)adenosine-3′, 5′-cyclic monophosphate column (8-AEA-cAMP agarose; BioLog, Germany) followed by washing with 20 column volumes of lysis buffer. The column was further washed with lysis buffer +3 M NaCl (5 column volumes) and PKGIα was then eluted with lysis buffer +150 mM NaCl and 500 μM cAMP. Removal of cAMP and buffer exchange was achieved by extensive dialysis against 25 mM sodium phosphate buffer pH 6.8, 2 mM EDTA and 100 mM NaCl. For ITC analysis, WT PKGIα was incubated with 10 mM lipoic acid for 2 h on ice to obtain ∼100% disulfide dimer (confirmed by SDS-PAGE). Oxidized WT or C42S PKGIα was further purified by size exclusion chromatography using a HiLoad 16/600 Superdex 200 pg column (GE Healthcare) with 50 mM sodium phosphate buffer pH 7.4 and 100 mM NaCl. Proteins were concentrated using Amicon Ultra centrifugal filter devices (Merck Millipore). DTT was absent in storage buffers so that the activating disulfide bond would not be reduced and so that the PKGIα M438G mutant would be oxidized to disulfide dimer in the presence of air (confirmed by SDS-PAGE). Protein concentration was determined by Pierce BCA assay (ThermoFisher) and enzyme activity was confirmed using the Omnia kinase assay kit (ThermoFisher).
(§3) Male Wistar rats (9–10 weeks; body weight 300–330 g) were euthanized by intraperitoneal injection of sodium pentobarbitone (200 mg kg^−1) with heparin (500 USP units). […]

Row | Molecule | Log2 fold change in phosphorylation, cGMP versus control
1 | B1 | 3.05*
2 | B2 | 3.16*
3 | B3 | 3.42*
4 | B4 | 3.44*
5 | B5 | 4.50*

Same assay, conditions: phospho site S302 (second site of this protein); n=4; * P<0.05

Row | Molecule | Log2 fold change in phosphorylation, cGMP versus control
6 | B1 | 3.16*

Tested on: PKGIα (analogue-sensitive M438G), disulfide-activated
Assay: Chemical genetic phosphoproteomic screen, disulfide-activated PKGIα M438G versus unactivated control
Type: biochemical, human PKGIα; substrates in rat heart homogenate
Conditions: disulfide-activated PKGIα M438G vs basal; 1 h, 30 °C, pH 7.5, rat heart homogenate; label-free LC–MS/MS; n=4; * P<0.05 Dunnett: only phospholamban S16
Description: as §1, §2, §3

Row | Molecule | Log2 fold change in phosphorylation, Disulfide versus control
7 | B1 | 1.30
8 | B2 | 1.13
9 | B3 | 1.91
10 | B4 | 0.04
11 | B5 | 1.82

Same assay, conditions: phospho site S302 (second site of this protein); n=4; not significant

Row | Molecule | Log2 fold change in phosphorylation, Disulfide versus control
12 | B1 | 1.32
